Source: patent US20090203760A1 (UNIVERSITY OF QUEENSLAND, published 2009)
Bridges are numbered along the chain shown (N, C = ends). Where no end group is shown, it is not given here. [ ]: non-standard residue; d: D form. NMeF = CN[C@@H](Cc1ccccc1)C(=O)O; dCha = N[C@H](CC1CCCCC1)C(=O)O

T1: human C5a receptor (C5aR) on intact human polymorphonuclear leukocytes (PMNs) (human, UniProt P21730 1-350)
T1 sequence (looked up): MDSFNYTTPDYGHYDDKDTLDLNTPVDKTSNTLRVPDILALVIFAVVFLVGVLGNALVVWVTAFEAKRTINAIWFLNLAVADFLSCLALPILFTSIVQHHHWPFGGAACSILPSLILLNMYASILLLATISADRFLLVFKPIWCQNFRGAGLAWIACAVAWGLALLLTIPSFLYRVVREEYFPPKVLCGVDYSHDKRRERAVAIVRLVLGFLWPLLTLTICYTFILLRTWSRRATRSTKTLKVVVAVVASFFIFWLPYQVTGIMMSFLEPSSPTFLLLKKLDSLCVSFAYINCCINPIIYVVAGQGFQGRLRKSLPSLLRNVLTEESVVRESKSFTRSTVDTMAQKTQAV


Key:
[1] = target: human C5a receptor (C5aR) on intact human polymorphonuclear leukocytes (PMNs) (human) (UniProt P21730); test: 50% inhibition of [125I]C5a binding to intact PMNs
[2] = target: human C5a receptor (C5aR) on intact human polymorphonuclear leukocytes (PMNs) (human) (UniProt P21730); test: cell-based or functional assay
[3] = target: T1, human C5a receptor (C5aR) on intact …; test: cell-based or functional assay
[4] = target: T1, human C5a receptor (C5aR) on intact …; test: competition with 125I-C5a for binding to intact human PMNs, 4 °C
[5] = target: T1, human C5a receptor (C5aR) on intact …; test: cell-based or functional assay; remark: listed apart in the source
[6] = target: human C5a receptor (C5aR) on intact human polymorphonuclear leukocytes (PMNs) (human) (UniProt P21730); test: 50% inhibition of [125I]C5a binding to intact PMNs; column head prints 'IC50 (M)', the pD2 shows µM
[7] = target: T1, human C5a receptor (C5aR) on intact …; test: as above
[8] = target: T1, human C5a receptor (C5aR) on intact …; test: unlabelled C5a competing with 125I-C5a for binding to intact human PMNs, 4 °C

| Molecule | pD2 [1] | IC50: 50% inhibition in the ability of C5a (100 nM) to cause the release of MPO from PMNs [2] [µM] | pD2: 50% inhibition in the ability of C5a (100 nM) to cause the release of MPO from PMNs [2] | also measured |
| --- | --- | --- | --- | --- |
| F-[KPdChaWr] (peptide) | 5.09 | 2.8 | 5.55 | IC50 [1]: 8.1 µM |
| F-[OPdChaWr] (peptide) | 5.51 | 1.6 | 5.79 | IC50 [1]: 3.1 µM |
| [NMeF]KP[dCha]W[dR]-NH2 (Linear; C-terminal amide of 7; also called ID NO:8) [MeFKP(dCha)Wr-CONH2] | – | – | – | Antagonist Potency IC50: 50% reduction in myeloperoxidase secretion from human PMNs mediated by 100 nM C5a [3]: 0.5 µM; IC50 [4]: 14 µM; antagonist activity against 7 (myeloperoxidase release from human PMNs) [5]: ~5 fold |
| KFXPXWR (N-acetyl-Lys at 1; ornithine (O) at 3; D-cyclohexylalanine (dCha) at 5; D-Arg at 7; cyclic over residues 3-7 (ornithine side chain to C-terminus), Cyclic) [AcKF-[OPdChaWr]] | – | – | – | IC50 [7]: 11 µM |
| [NMeF]KPLWR (Linear; dCha replaced by Leu; also called 10; ID NO:10) [MeFKPLWR] | – | – | – | Antagonist Potency IC50: 50% reduction in myeloperoxidase secretion from human PMNs mediated by 100 nM C5a [3]: > 1000 µM; IC50 [4]: 144 µM |
| cyclo(FWP[dCha]W[dR]) (SMILES N=C(N)NCCC[C@H]1NC(=O)[C@H](Cc2c[nH]c3ccccc23)NC(=O)[C@@H](CC2CCCCC2)NC(=O)[C@@H]2CCCN2C(=O)[C@H](Cc2c[nH]c3ccccc23)NC(=O)[C@H](Cc2ccccc2)NC1=O) [[FWPdChaWr]] | 4.37 | – | – | IC50 [6]: 43 µM |
| [NMeF]KP[dCha]WR (Linear; 7 with the chirality of Arg changed; also called ID NO:9) [MeFKP(dCha)WR] | – | – | – | IC50 [4]: 11 µM |
| human recombinant C5a (ligand, UniProt P01031 678-751, looked up, tracer form: Hunter/Bolton labelled 125I (New England Nuclear); unlabelled competitor form: none stated, mature) TLQKKIEEIAAKYKHSVVKKCCYDGACVNNDETCEQRAARISLGPRCIKAFTECCVVASQLRANISHKDMQLGR | – | – | – | IC50 [8]: 0.0008 µM |

The next lines start with results.

| pD2 [1] | IC50: 50% inhibition in the ability of C5a (100 nM) to cause the release of MPO from PMNs [2] [µM] | pD2: 50% inhibition in the ability of C5a (100 nM) to cause the release of MPO from PMNs [2] | Molecule | also measured |
| --- | --- | --- | --- | --- |
| 7.21 | 0.04 | 7.41 | F-[OPdChaWR] (peptide) | IC50 [1]: 0.06 µM |
| – | – | 7.07 | AcF-[KPdChaWr] (peptide) | – |
| 4.6 | – | 7.3 | AcF-[OPdChaWr] (peptide) | in vitro activity as a C5a antagonist in PMNs, against 17 [2]: 100 fold |
| 6.5 | 0.2 | 6.69 | F-[KPdChaWR] (peptide) | IC50 [1]: 0.3 µM |
| 4.81 | – | – | FKMXWR (N-acetyl-Phe at 1; D-cyclohexylalanine (dCha) at 4; D-Arg at 6; cyclic over residues 2-6 (Lys side chain to C-terminus)) [AcF-[KMdChaWr]] | IC50 [6]: 15 µM |
| 3.94 | 13 | 4.88 | Ac-FKK[dCha]W[dR] (lactam 2-C; SMILES CC(=O)N[C@@H](Cc1ccccc1)C(=O)N[C@H]1CCCCNC(=O)[C@@H](CCCNC(=N)N)NC(=O)[C@H](Cc2c[nH]c3ccccc23)NC(=O)[C@@H](CC2CCCCC2)NC(=O)[C@H](CCCCN)NC1=O) [AcF-[KKdChaWr]] | IC50 [6]: 116 µM |
